# Laboratory results reported in publication PMC7256200, “Identifying a Molecular Mechanism That Imparts Species-Specific Toxicity to YoeB Toxins” (Frontiers in Microbiology, 2020).
# B1: AtYoeB toxin (Atu2017) from Agrobacterium tumefaciens, GST-His tag removed (natural protein)
# chain: MKLVWTLSSWDDYEFWQRTDARMVEKINDLIRNAKRTPFAGLGKPEPLKGDMAGYWSRRITAEHRFVYRVSGSGSEQRLEVIQCRFHYQ
# notes: source: E. coli BL21 (DE3), purified (NiNTA, HRV3c PreScission cleavage, Superdex 75); not shown: GST, C-terminal, cleaved
# Molecular target: the molecule itself
# Assay: SEC-MALS
protein,measurement,value
B1,stoichiometry N,2
